From the supplement of paper PMC10065799, “High-throughput profiling of sequence recognition by tyrosine kinases and SH2 domains using bacterial peptide display” (eLife, 2023)

What was measured:
[1] = molecular target: FGFR3 (UniProt P22607); assay: phosphorylation enrichment, bacterial display (enrichment ratio); higher = better substrate or ligand; peptides without Tyr show the background
[2] = molecular target: EPHB2 (UniProt P29323); assay: as above
[3] = molecular target: Hck (UniProt P08631); assay: as above
Sequence of Hck (P08631 whole entry, looked up): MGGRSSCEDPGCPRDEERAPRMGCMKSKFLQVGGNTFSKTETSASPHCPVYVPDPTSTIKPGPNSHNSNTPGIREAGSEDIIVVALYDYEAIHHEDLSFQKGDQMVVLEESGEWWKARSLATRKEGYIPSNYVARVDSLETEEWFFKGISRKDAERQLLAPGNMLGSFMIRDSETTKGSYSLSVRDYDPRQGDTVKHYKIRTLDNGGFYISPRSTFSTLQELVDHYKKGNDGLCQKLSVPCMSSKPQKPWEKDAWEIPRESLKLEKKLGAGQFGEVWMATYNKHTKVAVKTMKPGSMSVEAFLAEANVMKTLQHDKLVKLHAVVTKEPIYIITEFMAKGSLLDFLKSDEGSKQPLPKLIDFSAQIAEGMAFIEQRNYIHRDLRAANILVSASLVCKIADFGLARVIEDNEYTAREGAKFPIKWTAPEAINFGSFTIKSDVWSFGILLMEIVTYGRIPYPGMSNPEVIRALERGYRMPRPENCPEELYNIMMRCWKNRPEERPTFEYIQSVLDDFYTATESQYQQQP

[4] = molecular target: EPHB1 (UniProt P54762); assay: as above
Sequence of EPHB1 (P54762 whole entry, looked up): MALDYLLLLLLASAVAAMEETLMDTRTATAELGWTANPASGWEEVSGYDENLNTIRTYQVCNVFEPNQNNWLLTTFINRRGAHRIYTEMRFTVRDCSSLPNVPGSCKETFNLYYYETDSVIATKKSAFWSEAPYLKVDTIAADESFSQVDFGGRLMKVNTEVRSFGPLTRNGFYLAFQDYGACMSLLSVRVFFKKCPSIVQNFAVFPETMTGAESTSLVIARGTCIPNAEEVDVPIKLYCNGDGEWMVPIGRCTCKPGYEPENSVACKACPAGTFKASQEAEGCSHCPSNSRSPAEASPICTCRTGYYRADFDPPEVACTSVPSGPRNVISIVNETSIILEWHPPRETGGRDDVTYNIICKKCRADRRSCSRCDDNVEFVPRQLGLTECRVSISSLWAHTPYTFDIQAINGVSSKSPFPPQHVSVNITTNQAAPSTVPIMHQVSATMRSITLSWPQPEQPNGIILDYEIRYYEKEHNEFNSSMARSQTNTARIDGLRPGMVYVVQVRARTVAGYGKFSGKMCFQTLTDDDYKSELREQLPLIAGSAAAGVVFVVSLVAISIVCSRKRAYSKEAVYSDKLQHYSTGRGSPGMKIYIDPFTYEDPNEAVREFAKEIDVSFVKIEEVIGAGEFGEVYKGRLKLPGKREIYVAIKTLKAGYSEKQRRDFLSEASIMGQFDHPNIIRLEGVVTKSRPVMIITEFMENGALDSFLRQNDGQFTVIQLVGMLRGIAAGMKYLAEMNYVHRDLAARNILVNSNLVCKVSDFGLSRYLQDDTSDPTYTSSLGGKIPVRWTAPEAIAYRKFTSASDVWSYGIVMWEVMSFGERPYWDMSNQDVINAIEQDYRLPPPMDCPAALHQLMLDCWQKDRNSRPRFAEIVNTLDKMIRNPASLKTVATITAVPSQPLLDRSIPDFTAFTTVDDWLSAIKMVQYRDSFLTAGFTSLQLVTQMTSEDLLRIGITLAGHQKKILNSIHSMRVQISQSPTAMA

[5] = system: Fer (mouse); assay: as above
[6] = system: c-Abl (mouse); assay: as above
[7] = molecular target: FGFR1 (UniProt P11362); assay: as above
Sequence of FGFR1 (P11362 whole entry, looked up): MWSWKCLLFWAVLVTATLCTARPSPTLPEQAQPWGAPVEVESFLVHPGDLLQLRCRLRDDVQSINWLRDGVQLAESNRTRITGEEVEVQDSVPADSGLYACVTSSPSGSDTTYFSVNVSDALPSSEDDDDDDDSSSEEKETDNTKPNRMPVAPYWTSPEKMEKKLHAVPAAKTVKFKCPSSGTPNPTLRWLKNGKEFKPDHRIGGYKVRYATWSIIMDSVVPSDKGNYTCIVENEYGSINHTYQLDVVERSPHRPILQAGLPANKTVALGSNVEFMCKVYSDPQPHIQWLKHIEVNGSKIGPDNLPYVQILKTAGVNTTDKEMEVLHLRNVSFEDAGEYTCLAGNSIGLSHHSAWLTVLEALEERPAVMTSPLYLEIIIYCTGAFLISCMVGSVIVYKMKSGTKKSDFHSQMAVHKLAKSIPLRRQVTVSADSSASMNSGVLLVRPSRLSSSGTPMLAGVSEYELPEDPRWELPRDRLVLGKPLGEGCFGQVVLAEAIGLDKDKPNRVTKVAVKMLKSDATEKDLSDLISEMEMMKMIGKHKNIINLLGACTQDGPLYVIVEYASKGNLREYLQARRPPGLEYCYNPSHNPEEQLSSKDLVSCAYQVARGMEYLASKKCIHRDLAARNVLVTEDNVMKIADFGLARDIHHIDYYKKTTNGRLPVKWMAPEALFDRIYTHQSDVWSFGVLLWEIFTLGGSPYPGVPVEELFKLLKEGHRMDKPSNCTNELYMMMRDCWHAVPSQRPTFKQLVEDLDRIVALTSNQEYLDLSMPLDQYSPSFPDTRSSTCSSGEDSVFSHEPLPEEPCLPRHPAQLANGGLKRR

[8] = system: AncSZ; assay: as above
[9] = molecular target: Fyn (UniProt P06241); assay: as above
Sequence of Fyn (P06241 whole entry, looked up): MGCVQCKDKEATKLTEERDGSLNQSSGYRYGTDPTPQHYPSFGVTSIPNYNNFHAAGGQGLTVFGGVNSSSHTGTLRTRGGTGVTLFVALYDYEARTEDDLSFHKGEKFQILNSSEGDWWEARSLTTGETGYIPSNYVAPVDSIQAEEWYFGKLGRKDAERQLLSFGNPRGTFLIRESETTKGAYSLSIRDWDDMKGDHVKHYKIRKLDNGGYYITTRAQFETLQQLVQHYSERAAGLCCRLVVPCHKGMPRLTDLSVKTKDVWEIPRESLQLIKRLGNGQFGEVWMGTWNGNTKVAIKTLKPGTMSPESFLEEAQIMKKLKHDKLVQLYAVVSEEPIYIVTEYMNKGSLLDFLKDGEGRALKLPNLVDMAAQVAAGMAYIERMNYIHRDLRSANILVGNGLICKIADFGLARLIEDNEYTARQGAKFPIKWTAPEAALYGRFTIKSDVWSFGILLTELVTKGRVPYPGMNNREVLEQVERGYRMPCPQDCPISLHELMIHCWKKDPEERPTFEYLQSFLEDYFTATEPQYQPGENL

[10] = molecular target: MERTK (UniProt Q12866); assay: as above
Sequence of MERTK (Q12866 whole entry, looked up): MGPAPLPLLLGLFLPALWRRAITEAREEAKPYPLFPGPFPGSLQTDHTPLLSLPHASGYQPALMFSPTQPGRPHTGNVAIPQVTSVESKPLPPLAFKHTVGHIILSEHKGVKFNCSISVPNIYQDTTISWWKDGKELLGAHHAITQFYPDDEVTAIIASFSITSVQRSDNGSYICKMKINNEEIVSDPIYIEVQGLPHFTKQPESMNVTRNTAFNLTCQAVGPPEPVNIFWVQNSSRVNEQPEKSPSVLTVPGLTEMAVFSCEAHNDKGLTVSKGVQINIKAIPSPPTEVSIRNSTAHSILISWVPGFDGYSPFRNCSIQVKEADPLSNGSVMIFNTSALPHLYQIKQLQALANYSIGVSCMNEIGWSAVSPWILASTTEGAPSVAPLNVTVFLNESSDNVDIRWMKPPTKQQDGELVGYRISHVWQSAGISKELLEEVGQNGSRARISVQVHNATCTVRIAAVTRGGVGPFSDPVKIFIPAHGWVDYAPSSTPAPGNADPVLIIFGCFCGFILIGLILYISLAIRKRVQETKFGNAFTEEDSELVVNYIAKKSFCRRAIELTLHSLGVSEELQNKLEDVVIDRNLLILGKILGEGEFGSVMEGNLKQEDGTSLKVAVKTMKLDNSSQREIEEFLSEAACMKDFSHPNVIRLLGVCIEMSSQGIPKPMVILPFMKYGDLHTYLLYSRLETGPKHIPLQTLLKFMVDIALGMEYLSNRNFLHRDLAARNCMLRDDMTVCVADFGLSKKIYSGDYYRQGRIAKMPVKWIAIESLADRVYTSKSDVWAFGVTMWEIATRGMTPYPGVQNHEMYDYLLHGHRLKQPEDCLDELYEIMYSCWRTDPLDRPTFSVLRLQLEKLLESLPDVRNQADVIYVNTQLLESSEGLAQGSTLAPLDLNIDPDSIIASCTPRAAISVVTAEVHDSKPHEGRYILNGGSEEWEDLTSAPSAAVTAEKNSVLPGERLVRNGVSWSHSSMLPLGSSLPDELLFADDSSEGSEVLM

[11] = molecular target: Jak2 (UniProt O60674); assay: as above
Sequence of Jak2 (O60674 whole entry, looked up): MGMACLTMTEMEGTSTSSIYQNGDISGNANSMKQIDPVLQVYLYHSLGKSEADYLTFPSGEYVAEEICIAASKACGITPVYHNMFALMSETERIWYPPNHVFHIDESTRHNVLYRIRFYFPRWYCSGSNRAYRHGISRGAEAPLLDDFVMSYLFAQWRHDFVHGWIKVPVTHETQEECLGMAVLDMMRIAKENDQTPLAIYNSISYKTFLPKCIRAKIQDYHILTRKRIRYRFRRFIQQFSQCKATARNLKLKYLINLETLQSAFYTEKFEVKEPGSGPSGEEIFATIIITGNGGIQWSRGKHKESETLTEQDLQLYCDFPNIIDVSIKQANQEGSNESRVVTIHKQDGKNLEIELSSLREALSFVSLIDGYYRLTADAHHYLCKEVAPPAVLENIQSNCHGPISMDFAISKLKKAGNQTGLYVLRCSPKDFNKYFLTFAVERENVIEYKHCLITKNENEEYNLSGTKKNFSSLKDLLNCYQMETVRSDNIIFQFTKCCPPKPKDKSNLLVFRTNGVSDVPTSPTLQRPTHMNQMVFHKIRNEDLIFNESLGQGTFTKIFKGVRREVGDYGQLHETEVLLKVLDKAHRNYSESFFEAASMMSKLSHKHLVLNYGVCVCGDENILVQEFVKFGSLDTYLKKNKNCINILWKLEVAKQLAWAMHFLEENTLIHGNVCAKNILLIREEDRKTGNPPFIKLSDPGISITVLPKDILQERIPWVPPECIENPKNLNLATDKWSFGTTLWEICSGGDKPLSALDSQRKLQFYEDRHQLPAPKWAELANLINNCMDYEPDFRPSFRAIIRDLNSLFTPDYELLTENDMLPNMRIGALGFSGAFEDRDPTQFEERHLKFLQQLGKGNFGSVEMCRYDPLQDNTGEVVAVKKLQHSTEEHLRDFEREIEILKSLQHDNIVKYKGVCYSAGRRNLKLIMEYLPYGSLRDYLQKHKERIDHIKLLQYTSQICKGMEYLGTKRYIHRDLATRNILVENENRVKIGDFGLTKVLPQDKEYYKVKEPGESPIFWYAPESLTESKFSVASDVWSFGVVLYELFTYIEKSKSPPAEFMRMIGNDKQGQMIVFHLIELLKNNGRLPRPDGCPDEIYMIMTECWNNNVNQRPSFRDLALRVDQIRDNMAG

[12] = system: c-Src; assay: as above
[13] = molecular target: Fes (UniProt P07332); assay: as above
[14] = molecular target: Grb2 SH2 (UniProt P62993); assay: SH2 binding enrichment of the phosphorylated peptide, bacterial display (enrichment ratio); higher = better substrate or ligand; peptides without Tyr show the background
[15] = molecular target: SHP2-C SH2; assay: as above
[16] = molecular target: c-Src SH2; assay: as above
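For SH2 binding enrichment of the phosphorylated peptide, bacterial display in this document: peptide library displayed on the E. coli surface as eCPX fusions, selected cells deep-sequenced, score is each peptide's frequency after selection divided by its frequency in the input.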
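For phosphorylation enrichment, bacterial display in this document: 11-residue human phosphosite peptides and single-mutation variants displayed on the E. coli surface, counted by deep sequencing, each peptide's frequency after selection divided by its frequency in the unselected input library; frequency after pTyr selection over input frequency; kinase dosed for 20-30% of maximal phosphorylation in three min.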

Sequence	phosphorylation enrichment [1]	phosphorylation enrichment [2]	phosphorylation enrichment [3]	phosphorylation enrichment [4]	phosphorylation enrichment [5]	phosphorylation enrichment [6]	phosphorylation enrichment [7]	phosphorylation enrichment [8]	phosphorylation enrichment [9]	phosphorylation enrichment [10]	phosphorylation enrichment [11]	phosphorylation enrichment [12]	phosphorylation enrichment [13]	SH2 binding enrichment [14]	SH2 binding enrichment [15]	SH2 binding enrichment [16]
HAKKNYGNSSV [HDX_Y197]	0.281	0.162	0.387	0.316	0.407	0.508	0.406	0.398	0.262	0.355	0.396	0.355	0.409	1.04	0.69	0.414
HDRNTYEKYLG [TF_Y666]	0.909	0.759	1.4	0.781	0.668	0.731	0.676	2.4	1.41	0.765	0.453	1.82	0.796	0.935	0.874	1.21
HEKKAYAFCGT [RPS6KA3_Y226_S227A]	0.581	0.46	0.63	0.561	0.46	0.649	0.751	0.654	0.54	0.458	0.516	0.498	0.887	1.04	0.888	0.721
HELFVYKCDEN [DOCK3_Y548_YF]	1.53	1.13	1.19	1.13	1.15	1.5	0.995	2.31	1.54	0.76	1.95	1.18	2.21	1.14	0.698	0.561
HELFVYKSDEN [DOCK3_Y548_C550S_YF]	1.13	0.84	0.66	0.706	0.927	1.11	0.94	1.87	0.734	0.505	2.04	0.616	2	0.973	0.662	0.604
HESEIYGKVCF [CSRP3_Y57_C58G_YF]	0.939	0.911	3.95	0.885	6.89	1.34	0.813	1.58	6.51	1.24	1.19	4.61	1.71	0.998	0.672	0.456
HESEIYGKVCY [CSRP3_Y57_C58G]	0.808	0.968	5.92	0.828	8.63	2.81	0.612	1.36	8.66	1.08	1.31	6.37	1.32	0.77	0.344	0.422
HFVFFYSFLLK [PTEN_Y178_R173H_YF]	1.14	0.844	0.819	1.32	1.01	2.85	0.682	2.18	1.07	1.44	3.35	1.55	2.93	2.43	1.14	1.05
HHIDFYKETTN [FGFR1_Y654_K656E_YF]	1.14	2.44	1.64	1.5	0.889	0.575	1.02	1.07	1.27	0.556	0.938	0.541	2.36	1.08	0.933	0.761
HHTDEYEFDEL [TGM1_Y134_YF]	0.852	0.936	0.697	0.909	0.622	0.96	1.07	1.38	0.725	0.445	1.09	0.745	1.3	1.45	1.73	0.43
HILRVYSGVLP [PCNX4_Y999_G1000S]	1.12	0.651	1.15	0.841	0.612	0.872	0.671	0.968	1.1	0.576	0.867	0.745	1.22	1.1	1.26	1.44
HKDNNYISMWF [PAPOLG_Y432_V433I]	2.46	2.15	0.866	2.88	1.14	0.975	3.2	1.93	0.934	1.33	1.46	0.663	2.53	0.726	0.51	0.346
HKDNNYVSMWF [PAPOLG_Y432]	2.75	4.55	0.636	6.89	2.8	0.654	3.98	1.36	0.77	1.5	1.01	0.666	1.39	1.02	0.817	0.557
HLAQRYLIWEC [SCN5A_Y694_R689H]	1.26	0.944	0.79	1.03	0.616	0.929	0.788	1.62	0.953	0.533	1.02	0.503	1.65	0.965	0.872	0.644
HLLRIYYDITD [MMP27_Y307_W304L]	2.33	1.99	0.891	1.93	1.23	1.63	2.49	1.46	1.07	0.88	1.91	1.66	2.15	0.711	0.704	1.55
HLTNQFMQRVA [PABPC4_Y382_Y382F]	0.631	0.35	0.722	0.621	0.527	0.898	0.576	0.791	0.437	0.673	0.697	0.541	0.809	1.16	0.733	0.591
